Results on 125 sequences are retold here after the supplement of paper PMC9112550, “Optimization of the antimicrobial peptide Bac7 by deep mutational scanning” (BMC Biology, 2022).

For the data set, the system named is Escherichia coli TOP10. The data set can be described thus: shrunken log2 fold change of peptide-encoding DNA abundance (4.5 h post-induction vs induction); higher = less antimicrobial activity (less host growth inhibition). The conditions noted are these: time post-induction: 4.5 h; library: site-saturation at positions 5, 18, 19, 20.
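Also: peptides expressed intracellularly from a pBAD plasmid library in pooled LB shake-flask culture, induced with 0.3% L-arabinose, DNA abundance read by NGS, three biological replicates, DESeq2 with apeglm shrinkage.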

RRIRNRPPRLPRPRPRPSNMPRP: the “shrunken log2 fold change” value was -0.429. Next, RRIRVRPPRLPRPRPRPRPEPRP: 0.609; RRIRERPPRLPRPRPRPYCSPRP: -0.57. Next, RRIRQRPPRLPRPRPRPMNAPRP: 0.0115. Next, RRIRKRPPRLPRPRPRPMPPPRP: 0.729; RRIRFRPPRLPRPRPRPRLVPRP: 0.207.

On to RRIRTRPPRLPRPRPRPYYHPRP, for which the “shrunken log2 fold change” value is -0.581. Under RRIRQRPPRLPRPRPRPWATPRP stands 0.136.

On to RRIRCRPPRLPRPRPRPAMIPRP, for which the “shrunken log2 fold change” value was found to be 0.111.

RRIRKRPPRLPRPRPRPPSIPRP: the “shrunken log2 fold change” value amounted to 0.0697.

For RRIRHRPPRLPRPRPRPLKNPRP, the “shrunken log2 fold change” value is -0.273. For the sequence RRIRNRPPRLPRPRPRPYTLPRP, the “shrunken log2 fold change” value was -0.288. Next, RRIRYRPPRLPRPRPRPWCAPRP: -0.255. For the sequence RRIRDRPPRLPRPRPRPVHKPRP, the “shrunken log2 fold change” value is -0.233. Next, RRIRSRPPRLPRPRPRPCFAPRP: 0.598; RRIRMRPPRLPRPRPRPYRKPRP: -0.432; RRIRRRPPRLPRPRPRPLFQPRP: 0.246.

Take RRIRKRPPRLPRPRPRPIGTPRP: the “shrunken log2 fold change” value came out at 0.105.

RRIRMRPPRLPRPRPRPPSHPRP: the “shrunken log2 fold change” value worked out at 0.622.

As to RRIRDRPPRLPRPRPRPEPAPRP, the “shrunken log2 fold change” value was determined as 0.883. Under RRIRLRPPRLPRPRPRPRIIPRP stands -1.12; under RRIRVRPPRLPRPRPRPDHVPRP, -0.0193. Under RRIRSRPPRLPRPRPRPNCDPRP stands -0.00648; under RRIRRRPPRLPRPRPRPSYSPRP, -0.319; under RRIRDRPPRLPRPRPRPGNLPRP, -0.0298. As for RRIRKRPPRLPRPRPRPECLPRP, the “shrunken log2 fold change” value is 0.182. Next, RRIRKRPPRLPRPRPRPAHRPRP: 0.562; RRIRFRPPRLPRPRPRPFPKPRP: 0.00183; RRIRSRPPRLPRPRPRPTDLPRP: -0.464. Next, RRIRTRPPRLPRPRPRPLVPPRP: 0.193; RRIRHRPPRLPRPRPRPDPLPRP: -0.106; RRIRLRPPRLPRPRPRPSETPRP: -0.0373. Under RRIRTRPPRLPRPRPRPDFCPRP stands -0.311. For RRIRLRPPRLPRPRPRPRGMPRP, the “shrunken log2 fold change” value worked out at 0.239. For the sequence RRIRIRPPRLPRPRPRPVGRPRP, the “shrunken log2 fold change” value was found to be 0.0883.

For RRIRHRPPRLPRPRPRPNLRPRP, the “shrunken log2 fold change” value turned out to be 0.00562.

Turning to RRIRTRPPRLPRPRPRPSEAPRP, the “shrunken log2 fold change” value came to 0.0182. With RRIRRRPPRLPRPRPRPPKIPRP, the “shrunken log2 fold change” value was determined as 0.403. For RRIRTRPPRLPRPRPRPFKMPRP, the “shrunken log2 fold change” value is -0.184.

RRIRYRPPRLPRPRPRPHMHPRP: the “shrunken log2 fold change” value was -0.988. For the sequence RRIRQRPPRLPRPRPRPCMHPRP, the “shrunken log2 fold change” value was -0.0431. Under RRIRIRPPRLPRPRPRPDSIPRP stands -0.00884; under RRIRKRPPRLPRPRPRPLLIPRP, -0.11; under RRIRCRPPRLPRPRPRPPEYPRP, -0.319. For the sequence RRIRSRPPRLPRPRPRPTPSPRP, the “shrunken log2 fold change” value amounted to 0.376. Under RRIRDRPPRLPRPRPRPSTIPRP stands -0.295. Under RRIRMRPPRLPRPRPRPYRRPRP stands 0.0224; under RRIRIRPPRLPRPRPRPSVWPRP, -0.221. For RRIRNRPPRLPRPRPRPVHRPRP, the “shrunken log2 fold change” value is -0.0338. Under RRIRTRPPRLPRPRPRPVDRPRP stands 0.141; under RRIRYRPPRLPRPRPRPHCNPRP, -0.366.

RRIRIRPPRLPRPRPRPHVGPRP: the “shrunken log2 fold change” value is -0.0138. Under RRIRKRPPRLPRPRPRPCPSPRP stands -0.0812. Next, RRIRVRPPRLPRPRPRPQRFPRP: -0.163; RRIRFRPPRLPRPRPRPFVVPRP: -0.219; RRIRARPPRLPRPRPRPFFQPRP: 0.107. RRIRPRPPRLPRPRPRPQMMPRP: the “shrunken log2 fold change” value was -0.41. For RRIRDRPPRLPRPRPRPQTWPRP, the “shrunken log2 fold change” value is -0.109. For RRIRIRPPRLPRPRPRPTFYPRP, the “shrunken log2 fold change” value was -0.462. Next, RRIRWRPPRLPRPRPRPDFQPRP: 0.0985.

Turning to RRIRKRPPRLPRPRPRPTGTPRP, the “shrunken log2 fold change” value is 0.563. Next, RRIRHRPPRLPRPRPRPAPTPRP: 0.294; RRIRPRPPRLPRPRPRPIYGPRP: -0.0498. Turning to RRIRLRPPRLPRPRPRPSDGPRP, the “shrunken log2 fold change” value is -0.162. Under RRIRARPPRLPRPRPRPFVAPRP stands 0.254; under RRIRRRPPRLPRPRPRPLDSPRP, -0.106; under RRIRGRPPRLPRPRPRPTEMPRP, 0.814. Next, RRIRYRPPRLPRPRPRPQLEPRP: -0.418; RRIRWRPPRLPRPRPRPEDGPRP: 0.173. Next, RRIRVRPPRLPRPRPRPIGFPRP: 0.187; RRIRMRPPRLPRPRPRPEMFPRP: 2.24. Regarding RRIRQRPPRLPRPRPRPTFIPRP, the “shrunken log2 fold change” value was -0.0494. Under RRIRSRPPRLPRPRPRPDPYPRP stands -0.312; under RRIRSRPPRLPRPRPRPRIIPRP, -0.712.

In the case of RRIRPRPPRLPRPRPRPESVPRP, the “shrunken log2 fold change” value was 0.0986.

In the case of RRIRRRPPRLPRPRPRPYAWPRP, the “shrunken log2 fold change” value stood at 0.157. Under RRIRPRPPRLPRPRPRPWVIPRP stands 0.0892; under RRIRRRPPRLPRPRPRPAMGPRP, 0.142. Next, RRIRGRPPRLPRPRPRPLAYPRP: 0.721; RRIRMRPPRLPRPRPRPFHSPRP: -0.0121; RRIRERPPRLPRPRPRPLNVPRP: -0.0706. Next, RRIRGRPPRLPRPRPRPMQKPRP: 0.61. As for RRIRTRPPRLPRPRPRPWPSPRP, the “shrunken log2 fold change” value is -0.00931. Next, RRIRMRPPRLPRPRPRPGEEPRP: 3.02. Under RRIRWRPPRLPRPRPRPNDQPRP stands 0.0201; under RRIRTRPPRLPRPRPRPWCHPRP, -0.732. Under RRIRQRPPRLPRPRPRPKIGPRP stands -0.0543; under RRIRIRPPRLPRPRPRPKIDPRP, -0.573; under RRIRPRPPRLPRPRPRPYWTPRP, -0.68. Turning to RRIRNRPPRLPRPRPRPDEAPRP, the “shrunken log2 fold change” value came out at 0.27. Under RRIRSRPPRLPRPRPRPCNLPRP stands -0.561; under RRIRGRPPRLPRPRPRPFSMPRP, 0.169; under RRIRFRPPRLPRPRPRPLMFPRP, -0.695. Take RRIRTRPPRLPRPRPRPVKEPRP: the “shrunken log2 fold change” value was -0.0988. For the sequence RRIRWRPPRLPRPRPRPPGNPRP, the “shrunken log2 fold change” value came to 0.687. In the case of RRIRYRPPRLPRPRPRPRVMPRP, the “shrunken log2 fold change” value is -0.155.

On to RRIRGRPPRLPRPRPRPSTPPRP, for which the “shrunken log2 fold change” value is 0.468. Turning to RRIRSRPPRLPRPRPRPVNHPRP, the “shrunken log2 fold change” value was -0.462.

For RRIRWRPPRLPRPRPRPNKLPRP, the “shrunken log2 fold change” value was -0.277. With RRIRQRPPRLPRPRPRPVMWPRP, the “shrunken log2 fold change” value amounted to 0.448.

For RRIRTRPPRLPRPRPRPDRPPRP, the “shrunken log2 fold change” value amounted to 0.188.

Turning to RRIRQRPPRLPRPRPRPYQVPRP, the “shrunken log2 fold change” value was -0.0417. Next, RRIRNRPPRLPRPRPRPSQRPRP: -0.0448; RRIRIRPPRLPRPRPRPKHEPRP: 0.0924; RRIRFRPPRLPRPRPRPRYAPRP: 0.148. For RRIRQRPPRLPRPRPRPMHLPRP, the “shrunken log2 fold change” value was -0.157. Under RRIRDRPPRLPRPRPRPAKQPRP stands 0.181; under RRIRPRPPRLPRPRPRPIFKPRP, -0.0374; under RRIRKRPPRLPRPRPRPQCSPRP, 0.136. Next, RRIRHRPPRLPRPRPRPIHTPRP: 0.00096; RRIRVRPPRLPRPRPRPRTMPRP: 0.0485. Next, RRIRCRPPRLPRPRPRPMVGPRP: -0.00233. For the sequence RRIRTRPPRLPRPRPRPGMYPRP, the “shrunken log2 fold change” value was -0.3. Under RRIRIRPPRLPRPRPRPCNSPRP stands -0.271. Under RRIRGRPPRLPRPRPRPQIPPRP stands 0.25. In the case of RRIRPRPPRLPRPRPRPDWHPRP, the “shrunken log2 fold change” value was -0.159. Turning to RRIRNRPPRLPRPRPRPNLSPRP, the “shrunken log2 fold change” value was -0.0459. Next, RRIRSRPPRLPRPRPRPQEEPRP: -0.0262; RRIRPRPPRLPRPRPRPINPPRP: -0.714; RRIRNRPPRLPRPRPRPTCGPRP: 0.073.

Turning to RRIRERPPRLPRPRPRPDDAPRP, the “shrunken log2 fold change” value is -0.179.

For RRIRRRPPRLPRPRPRPTWFPRP, the “shrunken log2 fold change” value worked out at 0.0478. Regarding RRIRVRPPRLPRPRPRPGKMPRP, the “shrunken log2 fold change” value was -0.0672. As for RRIRKRPPRLPRPRPRPQWQPRP, the “shrunken log2 fold change” value was found to be 0.0827. Under RRIRLRPPRLPRPRPRPKKMPRP stands 0.126.
